Experiment: In-vitro surface properties of lipoprotein-based artificial surfactant, pulsating bubble instrument (Example 4)
Type: physicochemical
Details: phospholipid 10 mg/ml, 37° C., compared with native lipoprotein
Procedure: To this mixture surfactant lipoprotein dissolved in chloroform/methanol 1:2 (v/v) was added, giving a lipoprotein to phospholipid ratio of 1:50. The solvents were evaporated to dryness and the different surfactant preparations (phospholipids, phospholipids+lipoprotein fraction) were suspended in saline giving a phospholipid concentration of 10 or 80 mg/ml.
The surface properties of the lipoprotein-based artificial surfactant were analyzed with a pulsating bubble instrument (Surfactometer International, Toronto, Canada) (30). The surfactant preparations were suspended at a phospholipid concentration of 10 mg/ml, and the pressure gradient across the bubble wall was recorded at 37° C. during 50% cyclic surface compression at the rate of 40/min. Surface tension was assessed at maximal and minimal bubble sizes during the 5th cycle and after 1 and 5 min of pulsation.
The tracings therein represent pressure gradients across the bubble wall; max and min indicate maximal (radius 0.55 mm) and minimal (radius 0.40 mm) bubble size during pulsation at a rate of 40/min. A pressure gradient close to zero at minimal bubble size corresponds to nearly zero surface tension.

In the case of “lipopeptide: hexapeptide H2 N-Ile-Pro-Cys-Cys-Pro-Val-COOH conjugated with palmitoyl-chloride (thioester lipopeptide) (H-IPCCPV-OH; also: palmitoyl thioester, Cys not given here)”, the “performance in the procedure of Example 4 (surface properties)” value is reported as “performs similarly as the native lipoprotein”.
